Experiment: yeast display, Sf9 membrane polyspecificity reagent, FACS + sequencing; frameworks hold sequencing errors
Method in brief: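 A nanobody's polyreactivity label depends on the gate it was sorted from. Yeast display cells were stained with 10% biotinylated, detergent-solubilized Sf9 membrane reagent for 1 hour at 4 °C, enriched on streptavidin microbeads and sorted by FACS. The low and high (top ~1%) gates were set on anti-HA fluorescence for expression and streptavidin fluorescence for reagent binding.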

Row | Sequence | polyreactivity (PSR sort gate)
1 | QVQLVESGGGLVQAGGSLRLSCAASGRICEVYAMGWYRQAPGKERELVAAINSGGSTRYADSVKGRFTISRDNAKNTVYLQMNSLKPEDTAVYYCNARPGYYRYLRGYNYWGQGTQVTVSS | low polyreactivity
2 | QVQLVESGGGLVQAGGSLRLSCAASGNTFHPYAMGWYRQAPGKVRELVAAITKSGGSTYYADSVKGRFTISRDNAKNTVYLQMNSLKPEDTAVYYCATDGYEYTDYGSSGYDYWGQGTQVTVSS | low polyreactivity
3 | QVQLVESGGGLVQAGGSLRLSCAASGFTLAWYAMGWYRQAPGKERELVATIRSGGNTYYADSVKGRFTISRDNAKNTVYLQMNSLKPEDTAVYYCAKTHTYPRYGRGYDYWGQGTQVTVSS | high polyreactivity
4 | QVQLVESGGGLVQAGGSLRLSCAASGRTFWYYAMGWYRQAPGKEREFVAAISWSGGSTYYADSVKGRFTISRDNAKNTVYFQMNSLKPEDTAVYYCNAGNYRDKSYYWGQGTQVTVSS | low polyreactivity
5 | QVQLVESGGGLVQAGGSLRLSCAASGSIFAVYAMGWYRQAPGKERELVASISRTGTTNYADSVKGRFTISRDNAKNTVYLQMYSLKPEDTAVYYCAARPGSWYPSVPSYNYWGQGTQVTVSS | low polyreactivity
6 | QVQLVESGGGLVQAGGSLRLSCSASGFIFWYNAMGWYRQAPGKERELVAAISWSGGRTYYADSVKGRFTISRDNAKNTVYLQMNSLKPEDSAVYYCAAKVPRSSRSYGYWGQGTQVTVSS | high polyreactivity
7 | QVQLVESGGGLVQAGGSLRLSCAASGSTINWNAMGWYRQAPGKERELVASINRGDSTYYADSVKGRFTISRDNAKNTVYLQMNSLKPEDTAVYYCAARRYYSLRTFLYCFSKYDYWGQGTQVTVSS | high polyreactivity
8 | QVQLVESGGGLVQAGGSLRLSCAASGSIFDVNAMGWYRQAPGKERELVASIDNSGTTNYADSVKGRFTISRDNAKNTVYLHMNSLKPEDTAVYYCAKDASLEYSRWGGDYWGQGTQVTVSS | low polyreactivity
9 | QVQLVESGGGLVQAGGSLRLSCAASGIIFFLYAMGWYRQAPGKERELVAAISSGGSTYYADSVKGRFTISRDNAKNTVYLQMNSLKPEDTAVYYCAVVGYASRYEKYYYWGQGTQVTVSS | high polyreactivity
10 | QVQLVESGGGLVQAGGSLRLSCAASGRIFYSYAMGWYRQAPGKERELVAGINWRGSNTYYADSVKGRFTISRDNAKNTVYLQINSLKPEDTAVYYCKAGRRQDYRYNYWGQGTQVTVSS | high polyreactivity
11 | QVQLEESGGALFQAGGSIRLSCAASGYTFDAYAMGWYRQAPGKERELVADINYSVGSTTYADSVKGRFTISRDNAKNTVYLQMNSLKTEDTAVYYCAAQGTWYAWDYDYWGQGTQVTVSS | low polyreactivity
12 | QVQLVESGGGLVQAGGSLRLSCAASGITFFRYAMGWYRQAPGKERELVAAISSSGGSTYYADSVKGRFTISRDNAKNTVYLQMNSLKPEDTAVYYCAAAHGYRYYWGQGTQVTVSS | high polyreactivity
13 | QVQLVESGGGLVQAGGSLRISCAASGSTFFKNAMGWYRQAPGKERELVAAITWSGDRTYADSVKGRFTISRDNAKNTVYLQMNSLKPEDTAVYYCNVDITGYDDDYWGQGPQVTVSS | low polyreactivity
14 | QVQLVESGGGLVQAGGSLRLSCAASGRIFSIYAMGWYRQAPGKERELVASINSGDSTYYADSVKGRFTISRDNAKNTVYLQMNSLKPEDTAVYYCAATLVTVPLYRFDYWGQGTQVTVSS | low polyreactivity
15 | QVQLVESGGGLVQAGGSLRLSCAASGRTFVGNTMGWYRQAPGKERELVAAISSGGRTYYADSVKGRFTISRDNAKNTVYLQMNSLKPEDTAVYYCAARRRGKVVPTSQFDYWGQGTQVTVSS | high polyreactivity
16 | QVQLVESGGGLVQAGGSLRLSCAASGRTFYRYAMGWYRQAPGKERELVAAITGGGGSTYYADSVKGRFTISRDNAKNTVYLQMNSLKPEDTAVYYCNRRSYGFISYNFWGQGTQVTVSS | high polyreactivity
17 | QVQLVESGGGLVQAGGSLRLSCAASGSTLYFYAMGGYRQAPGKERELVADITWSGGSTYYADSVKGRFTISRDNAKNTVYLQMNSLKPEDTAVYYCNADDWSTYWYGYPGYVYWGQGTQVTVSS | high polyreactivity
18 | QVQLVESGGGLVQAGGSLRLSCAASGRTLQGYAMGWYSQAPGKERELVAAISRGGGSTYADSVKGRFTISRDNAKNTVYLQMNSLKPEDTAVYYCAAVRGIYGGHYFRYDYWGQGTQVTVSS | high polyreactivity
19 | QVQLVESGGGLVQAGGSLRLSCAASGFIFSSYALGSYRQAPGKERELVAAIDLSGDSTYYADSVKGLFTISRDNAKNTVYLQMNSVKPEDTAVYYCAAQYYDYWYDSDYWGQGTQVTVSS | high polyreactivity
20 | QVQLVESGGGLVQAGGSLRLSCAASGRTFWYNAMGWYRQAPGKERELVAAISSTGGRTYYADSVKGRFTISRDNAKNTVYLQMNSLKPEDTAVYYCAARQLSSHYDYWGQGTQVTVSS | low polyreactivity
21 | QVQLVESGGGLVQAGGSLRLSCAASGRIFQKYAMGWYRQAPGKERELVAAISSGDSTYADSVKGRFTISRDNAKNTVYLQMNSLKPEDTAVYYCNREVPESQGFITPDGYCGQGTQVTVSS | low polyreactivity
22 | QVHLVESGGGLVQAGGSLRLSCAASGIIFYFYTMGWYRQAPGKERELVAAISSSGGRTFYADSVKGRFTISRDNAKNTDYLQMNSLKPEDTAVYYCAAAHTREYYWGQGTQVTVSS | high polyreactivity

Row | Sequence | polyreactivity (PSR sort gate)
23 | QVQLVESVGGLVQAGGSLRLSCAASGGIFYKYAMGWYRQAPGNERELVAAITGRGGSTNYADSVKGRFTISRDNSKNTVYLQMNSLKPEDNAVYYCAADLRLYSSQDNDYWGQGTQVTVSS | low polyreactivity
24 | QVQLVESGGCLVQAGGSLRLSCAASGSIINYYAMGWFRQAPGKERELVAGITTSGGSTYYADSVKGRFTISRDNAKHTVDLQMNSLKPEDTAVYYCAAYDYSSSTYFLDDYWGQGTQVTVSS | low polyreactivity
25 | QVQLVESVGGLVQAGGSLRLSCAASGFIFSVYAMGWNRQAPGKERELVAVISTSGGRTYYADSVKGRFTISRDNAKNTVYLQMNSLKPEDTAVDYCAADGFQYTLGNYYWGQGTQVTLSS | high polyreactivity
26 | QVQLVESGGGLVQAGGSLRLSCAPSGSTFYVNAMGWYRQAPGKEREFVAAITWNSGSTYYADSVKGRFTISRDNAKNTVYLQMNSLKPEDTAVYYCAADGYHYVTYLVSYGYWGQGTQVTVSS | low polyreactivity
27 | QVQLVESGGGLVQAGGSLRLSCAASGRTFRGNAMRWYRQAPGKERELVAAIRWNGGSTYYADSVKGRFTISRDNAKNTVYLQMNSLKPEDSAVYYCAVSYWYSRYDYWGQGTQVTVSS | high polyreactivity
28 | QVQLVESGGGLVQAGGSLRLSCAASGSIFRIYAKGWYRQAPGKERELVAAISSTGSTSYADSVKGRFTISRDNAKNTVYLQMNSLKPEDTAVYYCAAGVYALRRDYWVQGTQVTVSS | low polyreactivity
29 | QVQLVESGGGLVQAGGSLRLSCAASGRTFGDYAMGWYRQAPGKERELVAAISKSGGITYYADSVKGRFTISRDNAKNTVYLQMNSLKPEDTAVYYCNADGSPFYYSGYDYWGQGTQVTVSS | high polyreactivity
30 | QVQLVESGGGIVQAGGSLRLSCAASGFTFWSYAMGWYRPAPGKERELVAAISRGGSTSYADSVKGRFTISRDNAKNTVYLQLNSLKPEDTAVYYCAVVRARAYVYHGFYWGQGTQVTVSS | high polyreactivity
31 | QVQLVESGGRLVQAGGSLRLSCAASGLIIDYYTMGWYRQAPGKERELVAAINKSGGSTYADSVKGRFTISRDNAKNTVYLQMNCLKPEDSAVYYCAAEVDYSYWPEYSRKYYYWGEGTQVTVSS | low polyreactivity
32 | QVQLVESGGGLFQAGGSLRLSCAASGITFYYYTMGWYRQAPGKERELVAAISTRGGRTYYADSVKGRFTISRDNAKNTVYLQMNSLKPEDTAVYYCATYQSGVYASKRRLDYWGQGTQVTVSS | high polyreactivity
33 | QVQLVESGGGLVQAGGSLRLSCAASGSTFRVNARGWYRQAPGKERELVAAISFSAGGTYYADSVKGRFTISRDNAKNTVYLQMNSLKPEDTAVYYCAADFYYYDYWGQCTQVTVSS | low polyreactivity
34 | QVQLVESGGGLVQAGGSLRLSCAASGIFSYYAMGWSRQAPGKERELVAAISWSGGSTYYADSVKGRFTISRDNAKNTVYLQKNSLKPEDTAVYYCNKAYLTSQPRLGYWGQGTQVTVSS | high polyreactivity
35 | QVQLEESGGGLVQAGGSLRLSCAASGGTFLAYALGWYRQAPGKERELVATITSGGSTNYADSVKGRFTISRDNAKNTVYLQMNSLKPEDTAVYYCAASGRDFIAESPYDYWGQGTQVTVSS | low polyreactivity
36 | QVQLVESGGGLVQAGGSLRLICAASGFIFRNYARGWYRQAPGKERELVAAITRSGTSTYYADSVKGRFTISRDNAKNTVYLQMNSLKPEDTAVYYCNAGWGLRLSWLGNYWGQGTQVTVSS | high polyreactivity
37 | QVQLVESGGGLVQAGGSLRLSCAASGRIFKENAMGWYRQAPGKERELVAAISSGASTSYADSVKGRFTISRDNAKNTVYLQMNSLKPEDTAVYYCNRGGDLYYPGWLFDYWGQGSQVTVSS | low polyreactivity
38 | QVQLVESGGGLVQAGGSLRLSCAASGRTFSTNDMGWYRQAPGKERELVAAIDFDSDSTYYADSVKGRFTISRDNAKNTVYLQMNSMKPEDTAVYYCAAQYFSYGESYEYWGQGTQVTVSS | low polyreactivity
39 | QVQLVESGGGLVQAGGSLRLSCAASGSTFRWYAMGWYRQAPGKERELVASISGSGGSTYYADSVKGRFTISRDNAKNTVYLQMNSLKPEDTAVYYCNKRYFTYLGEHTVGYWGQGTQVTVSS | high polyreactivity
40 | QVQLVESGGGLVQAGGSLRLSCAASGYTFSRNAMGWYRQAPGKERELVADINYSGGITYYADSVKGRFTISRDNAKNTVYLQMNSLKPEDTAVYYCAAVATNVPTHGRPSRRAYDYWGQGTQVTVSS | low polyreactivity
41 | QVQLVESGGGLVQAGGSLRLSCAASGSIIYGYAMGWYRQAPGKERELVASISSGGSTNYADSVKGRFTISRDNAKNTVYLQMNSLKPEDTAVYYCAAYFQRSGFSFRLRGQGTQVTVSS | high polyreactivity
42 | QVQLVESGGGLVQAGGSLRLSCAASGSTFRYNAMGWYRQAPGKERELVAAITSTGDSTYYADSVKGRFTISRDNAKNTVYLQMNSLKPEDTAVYYCAARSYASPGWRYEYWGQGTQVTVSS | low polyreactivity
43 | KVQLVESGGGLVQAGGSLRLSCAASGRIFKYYAMGWYRQAPGKERELVAAISARGGSTYYADSVKGRFTISRDNAKNTVYLQMNSLKPEDTAVYYCAAPYLTTQYERMYYWGQGTQVTVSS | high polyreactivity
